T1: recombinant cyno IL1RAP ECD (cynomolgus monkey, UniProt P59822 21-367 (rhesus entry))
T1 construct: also called rcynoIL1RAP
T1 sequence: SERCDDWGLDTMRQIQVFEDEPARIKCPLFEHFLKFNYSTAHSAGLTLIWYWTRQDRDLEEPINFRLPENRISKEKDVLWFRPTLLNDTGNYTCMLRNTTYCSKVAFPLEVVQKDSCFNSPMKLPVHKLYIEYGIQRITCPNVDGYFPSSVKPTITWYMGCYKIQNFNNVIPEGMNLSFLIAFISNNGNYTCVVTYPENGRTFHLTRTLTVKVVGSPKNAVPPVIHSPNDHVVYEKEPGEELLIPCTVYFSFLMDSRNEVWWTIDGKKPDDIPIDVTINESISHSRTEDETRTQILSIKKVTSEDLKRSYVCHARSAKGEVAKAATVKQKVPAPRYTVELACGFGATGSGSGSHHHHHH

T2: recombinant human IL1RAP ECD (human, UniProt Q9NPH3 21-367)
T2 construct: His-tagged; also called hIL1RAP-ECD; rhuIL1RAP
T2 sequence: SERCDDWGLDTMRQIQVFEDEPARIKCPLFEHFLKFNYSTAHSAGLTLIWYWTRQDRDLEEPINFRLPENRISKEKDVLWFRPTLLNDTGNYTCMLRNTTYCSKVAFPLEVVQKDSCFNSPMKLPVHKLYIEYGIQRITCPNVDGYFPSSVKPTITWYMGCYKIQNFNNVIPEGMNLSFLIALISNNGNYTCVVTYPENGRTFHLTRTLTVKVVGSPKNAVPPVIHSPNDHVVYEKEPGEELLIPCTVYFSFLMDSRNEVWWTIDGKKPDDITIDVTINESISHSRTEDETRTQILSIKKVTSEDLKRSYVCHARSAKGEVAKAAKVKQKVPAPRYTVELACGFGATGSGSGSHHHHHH

T3: human IL1RAP on cells (endogenous) (human, UniProt Q9NPH3 21-570)
T3 sequence (looked up): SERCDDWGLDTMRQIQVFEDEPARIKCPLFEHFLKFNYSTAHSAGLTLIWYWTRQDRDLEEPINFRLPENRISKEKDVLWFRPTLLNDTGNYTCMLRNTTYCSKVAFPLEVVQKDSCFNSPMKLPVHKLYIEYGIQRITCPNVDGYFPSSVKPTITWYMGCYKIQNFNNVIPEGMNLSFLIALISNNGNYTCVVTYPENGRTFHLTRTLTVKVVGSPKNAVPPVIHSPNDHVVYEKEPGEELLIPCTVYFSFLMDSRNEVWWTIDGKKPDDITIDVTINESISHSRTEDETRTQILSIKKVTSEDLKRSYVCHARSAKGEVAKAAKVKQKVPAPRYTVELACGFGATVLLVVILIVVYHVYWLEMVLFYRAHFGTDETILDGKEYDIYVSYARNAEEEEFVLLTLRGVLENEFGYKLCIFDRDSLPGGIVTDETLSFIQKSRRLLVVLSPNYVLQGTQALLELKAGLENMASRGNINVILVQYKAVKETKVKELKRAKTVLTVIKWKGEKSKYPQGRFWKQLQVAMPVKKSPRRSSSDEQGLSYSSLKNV

T4: mouse IL1RAP ECD displayed on HEK-293F cells (pDisplay) (mouse, UniProt Q61730 21-367)
T4 sequence: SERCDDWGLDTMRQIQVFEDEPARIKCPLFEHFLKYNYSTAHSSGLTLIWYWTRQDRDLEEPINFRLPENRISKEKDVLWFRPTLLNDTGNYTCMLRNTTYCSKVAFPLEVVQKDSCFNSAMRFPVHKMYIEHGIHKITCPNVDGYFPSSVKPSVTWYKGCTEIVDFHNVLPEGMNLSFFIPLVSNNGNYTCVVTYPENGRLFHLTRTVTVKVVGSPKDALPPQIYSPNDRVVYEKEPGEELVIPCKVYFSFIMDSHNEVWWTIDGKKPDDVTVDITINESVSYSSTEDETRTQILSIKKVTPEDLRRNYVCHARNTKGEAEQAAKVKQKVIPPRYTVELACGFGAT

B1: IC3B2 (bispecific antibody, human IgG4 S228P, kappa, lambda, F234A L235A)
heavy 1: EVQLVESGGGLVQPGGSLKLSCAASGFTFNTYAMNWVRQASGKGLEWVGRIRSKYNAYATYYAASVKGRFTISRDDSKNTAYLQMNSLKTEDTAVYYCTRHGNFGNSYVSWFAYWGQGTLVTVSSASTKGPSVFPLAPCSRSTSESTAALGCLVKDYFPEPVTVSWNSGALTSGVHTFPAVLQSSGLYSLSSVVTVPSSSLGTKTYTCNVDHKPSNTKVDKRVESKYGPPCPPCPAPEAAGGPSVFLFPPKPKDTLMISRTPEVTCVVVDVSQEDPEVQFNWYVDGVEVHNAKTKPREEQFNSTYRVVSVLTVLHQDWLNGKEYKCKVSNKGLPSSIEKTISKAKGQPREPQVYTLPPSQEEMTKNQVSLTCLVKGFYPSDIAVEWESNGQPENNYKTTPPVLDSDGSFLLYSKLTVDKSRWQEGNVFSCSVMHEALHNHYTQKSLSLSLGK
light 1: QAVVTQEPSLTVSPGGTVTLTCRSSTGAVTTSNYANWVQQKPGQAPRGLIGGTNKRAPGTPARFSGSLLGGKAALTLSGAQPEDEAEYYCALWYSNLWVFGGGTKLTVLGQPKAAPSVTLFPPSSEELQANKATLVCLISDFYPGAVTVAWKADSSPVKAGVETTTPSKQSNNKYAASSYLSLTPEQWKSHRSYSCQVTHEGSTVEKTVAPTECS
heavy 2: not shown
light 2: not shown
notes: IgG4-PAA, Fab arm exchange; also called IAPB38 x CD3B220
B2: IC3B10 (bispecific antibody, human IgG4 S228P, kappa, lambda, F234A L235A)
heavy 1: EVQLVESGGGLVQPGGSLKLSCAASGFTFNTYAMNWVRQASGKGLEWVGRIRSKYNAYATYYAASVKGRFTISRDDSKNTAYLQMNSLKTEDTAVYYCTRHGNFGNSYVSWFAYWGQGTLVTVSSASTKGPSVFPLAPCSRSTSESTAALGCLVKDYFPEPVTVSWNSGALTSGVHTFPAVLQSSGLYSLSSVVTVPSSSLGTKTYTCNVDHKPSNTKVDKRVESKYGPPCPPCPAPEAAGGPSVFLFPPKPKDTLMISRTPEVTCVVVDVSQEDPEVQFNWYVDGVEVHNAKTKPREEQFNSTYRVVSVLTVLHQDWLNGKEYKCKVSNKGLPSSIEKTISKAKGQPREPQVYTLPPSQEEMTKNQVSLTCLVKGFYPSDIAVEWESNGQPENNYKTTPPVLDSDGSFLLYSKLTVDKSRWQEGNVFSCSVMHEALHNHYTQKSLSLSLGK
light 1: QAVVTQEPSLTVSPGGTVTLTCRSSTGAVTTSNYANWVQQKPGQAPRGLIGGTNKRAPGTPARFSGSLLGGKAALTLSGAQPEDEAEYYCALWYSNLWVFGGGTKLTVLGQPKAAPSVTLFPPSSEELQANKATLVCLISDFYPGAVTVAWKADSSPVKAGVETTTPSKQSNNKYAASSYLSLTPEQWKSHRSYSCQVTHEGSTVEKTVAPTECS
heavy 2: not shown
light 2: not shown
notes: IgG4-PAA, Fab arm exchange
B3: IC3B11 (bispecific antibody, human IgG4 S228P, kappa, lambda, F234A L235A)
heavy 1: EVQLVESGGGLVQPGGSLKLSCAASGFTFNTYAMNWVRQASGKGLEWVGRIRSKYNAYATYYAASVKGRFTISRDDSKNTAYLQMNSLKTEDTAVYYCTRHGNFGNSYVSWFAYWGQGTLVTVSSASTKGPSVFPLAPCSRSTSESTAALGCLVKDYFPEPVTVSWNSGALTSGVHTFPAVLQSSGLYSLSSVVTVPSSSLGTKTYTCNVDHKPSNTKVDKRVESKYGPPCPPCPAPEAAGGPSVFLFPPKPKDTLMISRTPEVTCVVVDVSQEDPEVQFNWYVDGVEVHNAKTKPREEQFNSTYRVVSVLTVLHQDWLNGKEYKCKVSNKGLPSSIEKTISKAKGQPREPQVYTLPPSQEEMTKNQVSLTCLVKGFYPSDIAVEWESNGQPENNYKTTPPVLDSDGSFLLYSKLTVDKSRWQEGNVFSCSVMHEALHNHYTQKSLSLSLGK
light 1: QAVVTQEPSLTVSPGGTVTLTCRSSTGAVTTSNYANWVQQKPGQAPRGLIGGTNKRAPGTPARFSGSLLGGKAALTLSGAQPEDEAEYYCALWYSNLWVFGGGTKLTVLGQPKAAPSVTLFPPSSEELQANKATLVCLISDFYPGAVTVAWKADSSPVKAGVETTTPSKQSNNKYAASSYLSLTPEQWKSHRSYSCQVTHEGSTVEKTVAPTECS
heavy 2: not shown
light 2: not shown
notes: IgG4-PAA, Fab arm exchange; also called IAPB9 x CD3B220
B4: IC3B7 (bispecific antibody, human IgG4 S228P, kappa, lambda, F234A L235A)
heavy 1: EVQLVESGGGLVQPGGSLKLSCAASGFTFNTYAMNWVRQASGKGLEWVGRIRSKYNAYATYYAASVKGRFTISRDDSKNTAYLQMNSLKTEDTAVYYCTRHGNFGNSYVSWFAYWGQGTLVTVSSASTKGPSVFPLAPCSRSTSESTAALGCLVKDYFPEPVTVSWNSGALTSGVHTFPAVLQSSGLYSLSSVVTVPSSSLGTKTYTCNVDHKPSNTKVDKRVESKYGPPCPPCPAPEAAGGPSVFLFPPKPKDTLMISRTPEVTCVVVDVSQEDPEVQFNWYVDGVEVHNAKTKPREEQFNSTYRVVSVLTVLHQDWLNGKEYKCKVSNKGLPSSIEKTISKAKGQPREPQVYTLPPSQEEMTKNQVSLTCLVKGFYPSDIAVEWESNGQPENNYKTTPPVLDSDGSFLLYSKLTVDKSRWQEGNVFSCSVMHEALHNHYTQKSLSLSLGK
light 1: QAVVTQEPSLTVSPGGTVTLTCRSSTGAVTTSNYANWVQQKPGQAPRGLIGGTNKRAPGTPARFSGSLLGGKAALTLSGAQPEDEAEYYCALWYSNLWVFGGGTKLTVLGQPKAAPSVTLFPPSSEELQANKATLVCLISDFYPGAVTVAWKADSSPVKAGVETTTPSKQSNNKYAASSYLSLTPEQWKSHRSYSCQVTHEGSTVEKTVAPTECS
heavy 2: not shown
light 2: not shown
notes: IgG4-PAA, Fab arm exchange; also called IAPB17 x CD3B220
B5: IAPB64 (antibody, human IgG4 S228P, lambda, F234A L235A, V domains shown)
VH: QVQLVQSGSELKKPGASVKVSCKASGYTFNTYAMNWVRQAPGQGLEWMGWINTNTGNPTYAQGFTGRFVFSLDTSVSTAYLQISSLKAEDTAVYYCARRYFDWLLGAFDIWGQGTMVTVSS
VL: QSALTQPRSVSGSPGHSVTISCTGTSSDVGDYNYVSWYQQRPGKVPKLLIYDVSKRPSGVPDRFSGSKSGNTASLTISGLQAEDEAIYFCSSYAGNYNVVFGGGTKLTVLG
notes: IgG4-PAA; whole chains; also called IAPB54-LC-C91S

Experiments:
[1] = molecular target: T1, recombinant cyno IL1RAP ECD; experiment: SPR, summary
[2] = molecular target: T2, recombinant human IL1RAP ECD; experiment: SPR, summary
[3] = molecular target: T2, recombinant human IL1RAP ECD; experiment: SPR
[4] = molecular target: T2, recombinant human IL1RAP ECD; experiment: SPR; human KD over cyno KD
[5] = molecular target: T3, human IL1RAP on cells (endogenous); experiment: cell-based or functional assay
[6] = molecular target: T4, mouse IL1RAP ECD displayed on HEK-293F …; experiment: Murine Binder, summary
[7] = molecular target: T1, recombinant cyno IL1RAP ECD; experiment: SPR
[8] = molecular target: T1, recombinant cyno IL1RAP ECD; experiment: SPR; remark: listed apart in the source
[9] = molecular target: T2, recombinant human IL1RAP ECD; experiment: SPR; remark: listed apart in the source
[10] = molecular target: T2, recombinant human IL1RAP ECD; experiment: SPR, summary; remark: listed apart in the source
[11] = molecular target: T2, recombinant human IL1RAP ECD; experiment: SPR; KD against parent IAPB54
[12] = molecular target: T2, recombinant human IL1RAP ECD; experiment: SPR (ProteOn)

| Binder | Kd [1] | Kd [2] | Kd [3] | koff [3] | kon [3] | Hu/Cyno KD Ratio [4] | EC50, T-cell mediated cytotoxicity [5] | binding result [6] | Kd [7] | koff [7] | kon [7] | Kd [8] | Kd [9] | Kd [10] | Fold Different from parent [11] | Kd [12] | koff [12] | kon [12] |
| --- | --- | --- | --- | --- | --- | --- | --- | --- | --- | --- | --- | --- | --- | --- | --- | --- | --- | --- |
| B1 | 16.9 nM | 7.36 nM | 7.36 nM | 0.000827 s⁻¹ | 112000 M⁻¹ s⁻¹ | 0.4 | 0.077 nM | binds | 16.9 nM | 0.00223 s⁻¹ | 132000 M⁻¹ s⁻¹ | 16.9 nM | 7.36 nM |  |  |  |  |  |
| B2 |  | 4.77 nM | 4.77 nM |  |  |  | 0.124 nM | binds |  |  |  |  | 4.77 nM |  |  |  |  |  |
| B3 | 5.27 nM | 4.56 nM | 4.56 nM | 0.00354 s⁻¹ | 776000 M⁻¹ s⁻¹ | 0.9 | 1.32 nM | binds | 5.27 nM | 0.00409 s⁻¹ | 776000 M⁻¹ s⁻¹ | 5.27 nM | 4.56 nM |  |  |  |  |  |
| B4 | 4.74 nM | 6.1 nM | 6.1 nM | 0.00659 s⁻¹ | 1.08e+06 M⁻¹ s⁻¹ | 1.3 | 3.4 nM | binds | 4.74 nM | 0.00583 s⁻¹ | 1.23e+06 M⁻¹ s⁻¹ | 4.74 nM | 6.1 nM |  |  |  |  |  |
| B5 |  |  |  |  |  |  |  |  |  |  |  |  |  | 0.38 nM | 4.7 fold | 0.367 nM | 0.000234 s⁻¹ | 638000 M⁻¹ s⁻¹ |

Source: patent US20190270826A1 (Janssen / Centocor, published 2019)
